{"source": "paper PMC11168103", "binders": {"B1": {"name": "ATTA2 (dsDNA)", "DNA 1": "TAGTGTGATTGAATTAAAGGGCAGG", "DNA 2": "CCTGCCCTTTAATTCAATCACACTA"}}, "biological_target": "PHOX2B-20A (UniProt Q99453 98-314)", "sequence (Q99453 98-314)": "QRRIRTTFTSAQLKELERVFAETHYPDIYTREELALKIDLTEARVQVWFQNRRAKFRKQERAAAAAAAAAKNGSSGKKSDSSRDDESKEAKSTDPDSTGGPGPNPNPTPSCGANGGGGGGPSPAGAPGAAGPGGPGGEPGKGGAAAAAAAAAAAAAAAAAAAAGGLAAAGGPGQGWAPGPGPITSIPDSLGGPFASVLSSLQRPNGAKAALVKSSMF", "assay": "NMR"}
{"binder": "B1", "values": [{"measurement": "binding result", "value": "binds"}]}
